Where no end group is shown, it is not given here.
Experiments:
Assay type in all cases: biochemical
[1] = molecular target: T1, microbial transglutaminase (mTG) (Streptomyces mobaraensis, UniProt P81453); experiment: mTG reaction on preferred substrates and Q-to-N mutated analogues; details: mutated analogue peptides
T1 construct: purchased Covalab, France opr 0054
T1 sequence (P81453 77-407): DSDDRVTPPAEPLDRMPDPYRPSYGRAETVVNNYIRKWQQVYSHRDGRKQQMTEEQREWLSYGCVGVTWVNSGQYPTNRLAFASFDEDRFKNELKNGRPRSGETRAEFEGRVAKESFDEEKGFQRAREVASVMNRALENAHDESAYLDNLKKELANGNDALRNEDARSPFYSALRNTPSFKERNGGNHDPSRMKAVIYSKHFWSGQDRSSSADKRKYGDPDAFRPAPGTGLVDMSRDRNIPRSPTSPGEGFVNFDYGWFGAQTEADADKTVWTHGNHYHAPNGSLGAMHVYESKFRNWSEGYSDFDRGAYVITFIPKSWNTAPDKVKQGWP
Excerpt: In order to confirm the specificity of mTG reaction on the highly reactive peptide HH12Q11 and its small derivatives DH6N5, the inventors synthesized the mutated analogue peptides in which the Gln donors (Q) were replaced by asparagine (N).

[2] = molecular target: T1, microbial transglutaminase (mTG); experiment: Colorimetric assay: mTG incorporation of biotinylated peptides into immobilized spermine, apparent Km; details: spermine plate; for Kmapp: biotin tagged peptides at 160-0 μM, Lineweaver-Burk, nr = peptide not recognized by the enzyme; for reactivity of peptide with mTG (text on Table 3): biotinylated peptides
Excerpt: To produce the Covabtest-spm plate, the procedure previously described in Mily et al (2009) was used.
For the screening of the peptide listed in table 2 (Biotinylated peptides) the inventors used our colorimetric assay to measure transglutaminase 2 (TG2) cross linking activity (Mily et al, 2009) and commercialized under ref opr0033 in which mTG was used instead of TG2 and described in this experience. The principle of the method is based on the transamidation activity of mTG, using covalently coupled spermine to carboxy-substituted polystyrene plates and biotinylated peptides. The assay consists of the incorporation of the glutamine gamma-carboxamide group into the immobilized spermine. The amount of biotinylated peptide bound to the plate, as measured by the activity of streptavidin-peroxidase, is directly proportional to the TG activity. Absorbance was measured at 450 nm using the microplate reader.
In order to compare the affinity of mTG to the preferred substrate, the peptides were used at different concentrations ranging from 160, 80, 40, 20, 10, 5, 2.5 and 0 μM. Then the apparent Km were determined for each peptide and were calculated by Lineweaver-Burk method (1/Absorbance=f(1/[mTG (μM)]).
In this experiment, spermine was conjugated into the plate as described in B-II-4. Biotinylated peptides described in table 3 were incubated with mTG at different concentration (160, 80, 40, 20, 10, 5, 2.5 and 0 μM). […] Even if E seems to abolish the reactivity of the peptides this cannot be due to the negative charge only but also to the nature of the amino acides at the position X+1, X+2 and X+3. […] This is confirmed with LN-11Q8Q10 peptide.

[3] = molecular target: T1, microbial transglutaminase (mTG); experiment: mTG incorporation of biot-cad into coated BSA-peptide conjugate, with free-peptide competition; details: 1 μg/ml coated, mTG 100 ng/ml, biotin-cad 0.1 mg/ml
Procedure: 2 mg of each peptide was dissolved in 1 ml of deionized water and 150 nmoles were mixed with 0.5 mg BSA solubilized in 50 mM bicarbonate buffer pH9.5. After shaking, glutaraldehyde was added at a final concentration of 0.25% (v/v). The mixtures were kept at room temperature during 16 hrs under gentle shaking. At the end of this incubation time, sodium borohydride was added at a final concentration of 10 mg/ml to stabilize the cross-linking between BSA and the peptides. After 2 hours each mixture of peptide-BSA was dialyzed separately in PBS to remove any free peptides.
High binding 96 wells-microtiter plates (Costar) were used to immobilize BSA-peptide and to human IgG-peptide conjugates prepared as described in M-4 and M-5. For these experiments, conjugates were prepared at 50 μg/ml in 50 mM sodium carbonate buffer pH 9 and 100 μl of each solution was dispensed in the number of wells needed for the experiment. After overnight incubation at 4° C., the plates were washed extensively with Tris Buffer Saline (TBS) and were ready to be used for TG activity.
The same procedure was used as described in B-II-1
In the literature its well known that many proteins are not substrate of transglutaminase even if many glutamine residues are present in their structures (Gorman J J, Folk J E. J Biol Chem. 1984 Jul. 25; 259(14):9007-10). […]

[4] = molecular target: T1, microbial transglutaminase (mTG); experiment: mTG-mediated incorporation of biotin-X-cadaverine into peptides coupled on Covabtest plate; details: 15 nmoles peptide coupled to plate, biot-cad 0.1 mg/ml, mTG 10 ng/well
Procedure: The coupling method was previously described by the Applicant (V. Thomas et al, 2004) and also in the corresponding data sheet of CovAbtest-Plate™ which is commercially available from Covalab (Ref #opr0004). Briefly, in separate tubes a solution mixture containing 150 μM of each peptide dissolved in 10 mM phosphate buffer pH5, 5 mM EDAC and 5 mM NHS was incubated for 30 min under gentle shaking. The resulting activated NHS-carboxyl C-terminal moiety of each peptide (15 nmoles) was used to be conjugated in each well of CovAbtest-Plate™ previously deprotonated during 15 min with 150 μl 0.6% sodium bicarbonate per well. The microtiter plate was then incubated during 2 hrs at room temperature and washed extensively with Tris Buffer Saline.
For this experiment we used the same procedures described by V Thomas et all (2004) and also in the Covalab's commercialized kit (opr0033). Briefly the Lyophilized transglutaminase was reconstituted in 40 mM tris buffer pH 8 and 50 μl of each mTG at 200 ng/ml and at 40 ng/ml were added in the wells containing 50 μl of biotin-X-cadaverine. The enzymatic mixture was incubated for 15 min at room temperature under gentle shaking. Then the plates were washed 3 times with TBS-Tween20 followed by the addition of 100 μl of diluted HRP labeled streptavidine ( 1/2000 in TBS Tween20, 0.5% BSA) in each well. After 30 min at room temperature and 3 washings in TBS-Tween20, 100 μL of TMB substrate were added and after 5 min the colour development was stopped using 100 μl of 0.5 M sulfuric acid. Absorbances at 450 nm were measured using a microplate reader (Multiskan, Labsystems, Helsinki, Finland).
To screen the peptide library (Covalab) and identify the putative new substrates of mTG we used Covabtest-peptide (described in B-I-1) in which the peptides were covalently coupled into the plates and the amine substrate Biotin-cadeverine (biot-cad) was free in solution. In this experiment 15 nmoles of each peptide (table 2) were covalently conjugated to microtiter plate and the incorporation of biot-cad (0.1 mg/ml) catalyzed by mTG (10 ng/well) was determined following the experiment described in B-II-1. Among all the peptides tested only few peptides were recognized by mTG as Gln (Q) donor to incorporate biot-cad as shown in the FIG. 1. The enzymatic activity was different between the peptide substrates. […] When Q is replaced by N (peptide HH12N11) no reactivity of the mTG was observed confirming the specificity of the enzyme to Gln donor. Moreover, if the reactivity of the 4 peptides (HH12Q11, DH6Q7, HG14Q11 and WG10Q7) is compared, it can be observed that the reactivity of the Gln depends on its position in the peptide sequence. In the most reactive peptides Q is located at the C-terminal. […]

DVYSNH (Peptide DH6N5)
mTG reactivity after replacement of Q by N [1]: abolish totally the enzyme reactivity

PSVQES (not fully specified; also: biotin tag, site not given here) [bPS6Q3]
Kmapp [2]: nr

VWRSQYF (also: biotin, place not given here) [bVF7Q5]
Kmapp [2]: nr

free BSA: non modified bovine serum albumin, control [reference compound]
incorporation of biot-cad by mTG into coated protein [3]: no reactivity

WPAQR [BEST4]
Kmapp [2]: 0.225 µM | reactivity of peptide with mTG (text on Table 3) [2]: excellent substrates

DVYSNH (also: biotin, place not given here) [bDH6N5]
Kmapp [2]: nr

LLTLPSVQEQN (also: biotin, place not given here) [bLN11Q8-10]
Kmapp [2]: 172.00 µM

HDLMWPDVYSNH [HH12N11]
reactivity as Gln donor for mTG incorporation of biot-cad [4]: no reactivity | mTG reactivity after replacement of Q by N [1]: abolish totally the enzyme reactivity

YEIQR [BEST1]
Kmapp [2]: 0.086 µM | reactivity of peptide with mTG (text on Table 3) [2]: excellent substrates

DVYSQH (also: biotin, place not given here) [bDH6Q5]
Kmapp [2]: 33.10 µM

CHQSYV (also: biotin, place not given here) [bCV6Q3]
Kmapp [2]: nr

GGSPLAQSHGGS (Peptide GS12Q7) [reference compound]
reactivity as Gln donor for mTG incorporation of biot-cad [4]: low reactivity

PLVQSH (also: biotin, place not given here) [bPH6Q4]
Kmapp [2]: 14.77 µM

HDLMWPDVYSNH (also: biotin, place not given here) [bHH12N11]
Kmapp [2]: nr

KEEFQPL (also: biotin, place not given here) [bKL7Q5]
Kmapp [2]: nr

HDLMWPDVYSQH (also: biotin, place not given here) [bHH12Q11]
Kmapp [2]: 3.08 µM

FWIQE (also: biotin, place not given here) [bFE5Q4]
Kmapp [2]: 5.00 µM

LLTLPSVSEQN (also: biotin, place not given here) [bLN11Q10]
Kmapp [2]: nr | reactivity of peptide with mTG (text on Table 3) [2]: inhibit completely the reactivity

DVYSQE (also: biotin, place not given here) [bDE6Q5]
Kmapp [2]: nr | reactivity of peptide with mTG (text on Table 3) [2]: reactivity seems to be lost

FWIQE (Peptide FE5Q4)
reactivity as Gln donor for mTG incorporation of biot-cad [4]: good substrate for mTG | reactivity of peptide with mTG (text on Table 3) [2]: high reactivity with mTG

YEAQK [BEST2]
Kmapp [2]: 0.114 µM | reactivity of peptide with mTG (text on Table 3) [2]: excellent substrates

WPDVYSQH (also: biotin) [bWH8Q7]
Kmapp [2]: 11.40 µM

YEAQR [BEST3]
Kmapp [2]: 0.08 µM | reactivity of peptide with mTG (text on Table 3) [2]: excellent substrates

HNKSQAL (also: biotin tag, position not given here) [bHL8Q6]
Kmapp [2]: nr

DVYSQH (Peptide DH6Q5)
reactivity of peptide with mTG (text on Table 3) [2]: highly reactive with mTG

YEVQK [BEST5]
Kmapp [2]: 0.126 µM | reactivity of peptide with mTG (text on Table 3) [2]: excellent substrates

HSQALP [bHP6Q3(A)]
Kmapp [2]: nr

SPLKHQEY (also: biotin, place not given here) [bSY8Q6]
Kmapp [2]: >50.00 µM

WPDVYSQH (Peptide WH8Q7)
reactivity of peptide with mTG (text on Table 3) [2]: highly reactive with mTG

WPLMMQD (also: biotin) [bWD7Q7]
Kmapp [2]: nr

Reference: patent publication US11376333B2, “mTG substrates for covalent conjugation of compounds” (COVALAB, priority 2013, dated 2022)
